Results as given in article PMC9352680, “A comprehensive thermodynamic model for RNA binding by the Saccharomyces cerevisiae Pumilio protein PUF4”.

Target: T1, PUF4 RNA-binding domain (Saccharomyces cerevisiae, UniProt P25339 537-888)
T1 sequence: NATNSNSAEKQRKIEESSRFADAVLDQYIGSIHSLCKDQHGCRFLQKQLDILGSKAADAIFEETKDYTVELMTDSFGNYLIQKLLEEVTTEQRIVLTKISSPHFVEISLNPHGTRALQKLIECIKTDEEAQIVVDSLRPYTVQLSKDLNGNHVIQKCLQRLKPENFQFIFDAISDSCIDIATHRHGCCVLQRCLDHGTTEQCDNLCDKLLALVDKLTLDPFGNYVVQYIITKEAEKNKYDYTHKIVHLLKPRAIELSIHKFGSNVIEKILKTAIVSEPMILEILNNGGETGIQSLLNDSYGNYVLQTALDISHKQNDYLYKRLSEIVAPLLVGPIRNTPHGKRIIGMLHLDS
Assay: Mg; RNA-MaP; 20 mM Na-HEPES pH 7.4, 30 mM KOAc, 0.75 mM MgCl2, 0.1% Tween-20, 5% glycerol, 0.1 mg/mL BSA, 2 mM DTT; 25 C; 0.0125-409.6 nM protein
Conditions: tags: N-His6-TEV cleaved; C-SNAP kept, Cy3B-labelled; label: tethered on chip by stalled RNA polymerase

B1: Ic_S2_P4E.1_K4.1_C4.1_H4.1_A4.1_F4.1_[A9T]_T4.1 (ssRNA)
RNA: UUUGAUUAAUAUGAUAUCGUUCUUUCUUGUAUAUUUUUCUUUCUCGAUAUCAUAUUAAUCUUU
Kd: 1.55 nM

B2: Ib_S2_P4E.1_K4.1_C4.1_H4.1_A4.1_[A6G]_F4.1_[A9T]_T4.1 (ssRNA)
RNA: UUUGAUUAAUAUGAUAUCGUUCUUUCUUGUAUGUUUUUCUUUCUCGAUAUCAUAUUAAUCUUU
Kd: 18.3 nM

B3: Ib_S2_P4E.1_K4.1_C4.1_H4.1_A4.1_[A6C]_F4.1_[A9T]_T4.1 (ssRNA)
RNA: UUUGAUUAAUAUGAUAUCGUUCUUUCUUGUAUCUUUUUCUUUCUCGAUAUCAUAUUAAUCUUU
Kd: 8.41 nM

B4: Ib_S2_P4E.1_K4.1_C4.1_H4.1_A4.1_[T7C]_F4.1_[A9T]_T4.1 (ssRNA)
RNA: UUUGAUUAAUAUGAUAUCGUUCUUUCUUGUAUACUUUUCUUUCUCGAUAUCAUAUUAAUCUUU
Kd: 2.73 nM

B5: Ib_S2_P4E.1_K4.1_C4.1_H4.1_[T1G]_[T3C]_A4.1_F4.1_T4.1 (ssRNA)
RNA: UUUGAUUAAUAUGAUAUCGUUCUUUCUGGCAUAUUAUUCUUUCUCGAUAUCAUAUUAAUCUUU
Kd: 222 nM

B6: Ib_S2_P4E.1_K4.1_C4.1_H4.1_A4.1_[A6T]_F4.1_[A9C]_T4.1 (ssRNA)
RNA: UUUGAUUAAUAUGAUAUCGUUCUUUCUUGUAUUUUCUUCUUUCUCGAUAUCAUAUUAAUCUUU
Kd: 20.5 nM

B7: Ib_S2_P4E.1_K4.1_C4.1_H4.1_A4.1_[A6T]_F4.1_[A9T]_T4.1 (ssRNA)
RNA: UUUGAUUAAUAUGAUAUCGUUCUUUCUUGUAUUUUUUUCUUUCUCGAUAUCAUAUUAAUCUUU
Kd: 9.83 nM

B8: Ib_S2_P4E.1_K4.1_C4.1_H4.1_[T1A]_[G2C]_A4.1_F4.1_T4.1 (ssRNA)
RNA: UUUGAUUAAUAUGAUAUCGUUCUUUCUACUAUAUUAUUCUUUCUCGAUAUCAUAUUAAUCUUU
Kd: 174 nM

B9: Ib_S2_P4E.1_K4.1_C4.1_H4.1_[T1G]_[G2T]_A4.1_F4.1_T4.1 (ssRNA)
RNA: UUUGAUUAAUAUGAUAUCGUUCUUUCUGUUAUAUUAUUCUUUCUCGAUAUCAUAUUAAUCUUU
Kd: 7.76 nM

B10: Ic_S2_P4E.1_K4.1_C4.1_H4.1_A4.1_[A6C]_F4.1_[A9C]_T4.1 (ssRNA)
RNA: UUUGAUUAAUAUGAUAUCGUUCUUUCUUGUAUCUUCUUCUUUCUCGAUAUCAUAUUAAUCUUU
Kd: 14.5 nM

B11: Ia_S2_P4E.1_K4.1_C4.1_H4.1_[T1A]_A4.1_F4.1_T4.1 (ssRNA)
RNA: UUUGAUUAAUAUGAUAUCGUUCUUUCUAGUAUAUUAUUCUUUCUCGAUAUCAUAUUAAUCUUU
Kd: 103 nM

B12: Ib_S2_P4E.1_K4.1_C4.1_H4.1_A4.1_[T7A]_F4.1_[A9C]_T4.1 (ssRNA)
RNA: UUUGAUUAAUAUGAUAUCGUUCUUUCUUGUAUAAUCUUCUUUCUCGAUAUCAUAUUAAUCUUU
Kd: 12.3 nM

B13: Ic_S2_P4E.1_K4.1_C4.1_H4.1_A4.1_[T7G]_F4.1_[A9G]_T4.1 (ssRNA)
RNA: UUUGAUUAAUAUGAUAUCGUUCUUUCUUGUAUAGUGUUCUUUCUCGAUAUCAUAUUAAUCUUU
Kd: 6.7 nM

B14: Ic_S2_P4E.1_K4.1_C4.1_H4.1_A4.1_[T7A]_F4.1_[A9T]_T4.1 (ssRNA)
RNA: UUUGAUUAAUAUGAUAUCGUUCUUUCUUGUAUAAUUUUCUUUCUCGAUAUCAUAUUAAUCUUU
Kd: 4.33 nM

B15: Ib_S2_P4E.1_K4.1_C4.1_H4.1_[T1A]_[G2A]_A4.1_F4.1_T4.1 (ssRNA)
RNA: UUUGAUUAAUAUGAUAUCGUUCUUUCUAAUAUAUUAUUCUUUCUCGAUAUCAUAUUAAUCUUU
Kd: 616 nM

B16: Ic_S2_P4E.1_K4.1_C4.1_H4.1_A4.1_[T7G]_F4.1_[A9T]_T4.1 (ssRNA)
RNA: UUUGAUUAAUAUGAUAUCGUUCUUUCUUGUAUAGUUUUCUUUCUCGAUAUCAUAUUAAUCUUU
Kd: 11.6 nM

B17: Ib_S2_P4E.1_K4.1_C4.1_H4.1_A4.1_[A6C]_F4.1_[A9G]_T4.1 (ssRNA)
RNA: UUUGAUUAAUAUGAUAUCGUUCUUUCUUGUAUCUUGUUCUUUCUCGAUAUCAUAUUAAUCUUU
Kd: 9.54 nM

B18: Ib_S2_P4E.1_K4.1_C4.1_H4.1_[T1G]_[A4G]_A4.1_F4.1_T4.1 (ssRNA)
RNA: UUUGAUUAAUAUGAUAUCGUUCUUUCUGGUGUAUUAUUCUUUCUCGAUAUCAUAUUAAUCUUU
Kd: 18.6 nM

B19: Ic_S2_P4E.1_K4.1_C4.1_H4.1_A4.1_[T7A]_F4.1_[A9G]_T4.1 (ssRNA)
RNA: UUUGAUUAAUAUGAUAUCGUUCUUUCUUGUAUAAUGUUCUUUCUCGAUAUCAUAUUAAUCUUU
Kd: 5.97 nM
